Numbering of substitutions follows the chain as printed.

The target of experiment [1] is T1, F401-VLPs of parvovirus B19 (parvovirus B19 genotype 1 (mutated), UniProt P07299 228-781).
T1 construct: also called F401-B19V; construct A
T1 chain: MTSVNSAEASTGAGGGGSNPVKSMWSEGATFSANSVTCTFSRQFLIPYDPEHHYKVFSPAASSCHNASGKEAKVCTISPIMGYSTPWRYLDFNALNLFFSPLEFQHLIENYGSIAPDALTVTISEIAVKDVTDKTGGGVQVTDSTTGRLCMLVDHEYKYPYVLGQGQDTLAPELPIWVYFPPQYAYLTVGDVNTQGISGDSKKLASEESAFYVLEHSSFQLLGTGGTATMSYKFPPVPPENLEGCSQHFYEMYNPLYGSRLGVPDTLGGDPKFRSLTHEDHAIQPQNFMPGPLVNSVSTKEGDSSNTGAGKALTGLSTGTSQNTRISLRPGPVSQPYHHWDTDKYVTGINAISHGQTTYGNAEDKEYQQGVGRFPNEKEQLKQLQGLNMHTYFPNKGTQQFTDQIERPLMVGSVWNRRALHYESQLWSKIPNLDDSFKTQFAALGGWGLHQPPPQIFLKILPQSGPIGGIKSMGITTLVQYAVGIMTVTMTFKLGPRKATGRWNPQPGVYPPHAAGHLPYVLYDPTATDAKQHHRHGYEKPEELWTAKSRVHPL
In words: ELISA, intact VLPs coated, hybridoma supernatant. On the technique in general: In an ELISA, binding on a coated surface is turned into a signal by an enzyme label.

A further experiment addresses T2, KEYA368A369-VLPs of B19V (parvovirus B19 genotype 1 (mutated), UniProt P07299 228-781).
T2 construct: also called construct D
T2 chain: T1 chain with Q368A, Q369A, F401Y
Put plainly: ELISA, intact VLPs coated, hybridoma supernatant.

Experiment [2] has as its target T3, N399N400F401TDT404-VLPs of parvovirus B19 (parvovirus B19 genotype 1 (mutated), UniProt P07299 228-781).
T3 construct: also called NNF401TDT-B19V; NNF401TDT
T3 chain: T1 chain with Q399N, Q400N, Q404T
In words: ELISA, intact VLPs coated, hybridoma supernatant.

The target of the next experiment is T4, HPV16 VLPs (human papillomavirus type 16, UniProt P03101 1-505).
T4 construct: Specificity control; also called human papillomavirus VLPs
T4 sequence: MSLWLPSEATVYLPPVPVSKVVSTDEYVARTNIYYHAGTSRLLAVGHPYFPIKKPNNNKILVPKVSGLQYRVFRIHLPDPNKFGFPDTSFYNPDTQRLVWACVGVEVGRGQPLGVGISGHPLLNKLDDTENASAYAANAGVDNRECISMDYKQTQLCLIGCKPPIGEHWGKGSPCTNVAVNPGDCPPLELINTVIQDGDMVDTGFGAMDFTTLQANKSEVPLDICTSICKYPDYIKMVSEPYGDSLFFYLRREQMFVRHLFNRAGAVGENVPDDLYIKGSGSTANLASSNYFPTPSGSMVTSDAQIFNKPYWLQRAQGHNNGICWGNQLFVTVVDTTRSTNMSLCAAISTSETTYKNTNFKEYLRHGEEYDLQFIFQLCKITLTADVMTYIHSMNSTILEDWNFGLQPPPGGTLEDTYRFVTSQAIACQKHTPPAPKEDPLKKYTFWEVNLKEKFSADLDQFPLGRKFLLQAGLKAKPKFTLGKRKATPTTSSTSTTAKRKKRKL
In words: ELISA, VLPs coated.

B1: MAb #25 (antibody, V domains shown)
VH: QVQLQQPGAELVRPGASVKLSCKASGYTFTNYWMHWVKQRPEQGLEWIGRIDPYDSETHYNQKFKDKAILTVDTSSNTAYMQLSSLTSEDSAVYYCTSYYYGSNYVWHFDVWGAGTTVTVSS
VL: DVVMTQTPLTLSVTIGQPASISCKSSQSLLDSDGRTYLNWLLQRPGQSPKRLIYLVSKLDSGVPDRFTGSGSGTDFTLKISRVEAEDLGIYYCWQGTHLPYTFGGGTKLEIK
notes: Murine hybridoma antibody, supernatant; also called antibody 25
As for B1, the “ELISA absorbance (405 nm)” value was determined as 3.82 in experiment [1], 2.79 with KEYA368A369-VLPs of B19V and 3.26 in experiment [2]. The binding result with HPV16 VLPs is “no binding”.

B2: MAb #91 (antibody, V domains shown)
VH: EVQLQQSGPELVKPGASVKISCKASGYSFTDYFMNWVKQSHGKSLEWIGRINPYNGDSFYNQNFRGSVTLTVDKSSGTAHMELLSLTSEDSTVYYCGAYRYDGYAMDYWGQGTSVTVSS
VL: DVVMTQTPLSLPVSLGDQASISCRSSQSLVHSDGNTYLHWYLQKPGQSPKLLIYKVSNRFSGVPDRFSGSGSGTDFTLKISRVEAEDLGVYFCSQSTHVPFTFGSGTKLEIK
notes: Murine hybridoma antibody, supernatant; also called antibody 91
Consider B2, for which the “ELISA absorbance (405 nm)” value in experiment [1] was 3.01; with KEYA368A369-VLPs of B19V, 2.59; in experiment [2] it was 3.86. In addition, in the experiment with HPV16 VLPs, the binding result is given as “no binding”.
